According to publication PMC8026774:

Assays:
MOR-1O-PK (mouse) [1] = biological target: MOR-1O-PK (mouse)
MOR-1-PK (mouse) = MOR-1-PK (mouse) (UniProt P42866)
MOR-1O-PK (mouse) [2] = experiment: radioligand binding
[3] = biological target: MOR-1O (untagged) (mouse); experiment: radioligand binding

Substance | [35S]GTPγS binding (G-protein activation), EC50 (MOR-1B1-PK (mouse)) [nM] | [35S]GTPγS binding (G-protein activation), EC50 (MOR-1A-PK (mouse)) [nM] | [35S]GTPγS binding (G-protein activation), EC50 (MOR-1C-PK (mouse)) [nM] | [35S]GTPγS binding (G-protein activation), EC50 (MOR-1E-PK (mouse)) [nM] | [35S]GTPγS binding (G-protein activation), EC50 (MOR-TR-PK (mouse)) [nM] | [35S]GTPγS binding (G-protein activation), EC50 (MOR-1O-PK (mouse) [1]) [nM] | [35S]GTPγS binding (G-protein activation), EC50 (MOR-1-PK (mouse)) [nM] | Ki (MOR-1O-PK (mouse) [2]) [nM] | Ki [3] [nM]
DAMGO (peptide) | 110 | 39 | 195 | 29 | 48 |  |  |  | 
[Met^5]enkephalin-Arg^6,Phe^7 (peptide) | 33 | 13 | 69 |  | 73 | 82 | 16 |  | 
endomorphin-1 (peptide) | 113 | 86 | 116 | 42 | 107 | 282 | 44 |  | 
endomorphin-2 (peptide) | 367 | 131 | 111 | 101 | 55 | 335 | 90 |  | 
β-endorphin (from UniProt P01189) (peptide) |  |  |  |  |  | 192 |  | 38.2 | 13.3
